Measured values as given in paper PMC2878840.

Legend:
[1] = ZO-1 immunoprecipitation, Western blot; conditions: glycan lost; control: wild type E-cadherin (E-cad-myc)
[2] = Western blot normalised to ZO-1 or claudin-1; conditions: glycan lost; control: wild type E-cadherin (E-cad-myc)
[3] = anti-CNX Western blot normalised to actin; conditions: glycan lost; control: mock-transfected cells
[4] = TER of confluent monolayers on Transwells; conditions: glycan lost; control: wild type E-cadherin (E-cad-myc)
[5] = confocal immunofluorescence, x-z sections; conditions: glycan lost; control: wild type E-cadherin

B1: E-cadherin: V13 (protein)
parent chain: MGPWSRSLSALLLLLQVSSWLCQEPEPCHPGFDAESYTFTVPRRHLERGRVLGRVNFEDCTGRQRTAYFSLDTRFKVGTDGVITVKRPLRFHNPQIHFLVYAWDSTYRKFSTKVTLNTVGHHHRPPPHQASVSGIQAELLTFPNSSPGLRRQKRDWVIPPISCPENEKGPFPKNLVQIKSNKDKEGKVFYSITGQGADTPPVGVFIIERETGWLKVTEPLDRERIATYTLFSHAVSSNGNAVEDPMEILITVTDQNDNKPEFTQEVFKGSVMEGALPGTSVMEVTATDADDDVNTYNAAIAYTILSQDPELPDKNMFTINRNTGVISVVTTGLDRESFPTYTLVVQAADLQGEGLSTTATAVITVTDTNDNPPIFNPTTYKGQVPENEANVVITTLKVTDADAPNTPAWEAVYTILNDDGGQFVVTTNPVNNDGILKTAKGLDFEAKQQYILHVAVTNVVPFEVSLTTSTATVTVDVLDVNEAPIFVPPEKRVEVSEDFGVGQEITSYTAQEPDTFMEQKITYRIWRDTANWLEINPDTGAISTRAELDREDFEHVKNSTYTALIIATDNGSPVATGTGTLLLILSDVNDNAPIPEPRTIFFCERNPKPQVINIIDADLPPNTSPFTAELTHGASANWTIQYNDPTQESIILKPKMALEVGDYKINLKLMDNQNKDQVTTLEVSVCDCEGAAGVCRKAQPVEAGLQIPAILGILGGILALLILILLLLLFLRRRAVVKEPLLPPEDDTRDNVYYYDEEGGGEEDQDFDLSQLHRGLDARPEVTRNDVAPTLMSVPRYLPRPANPDEIGNFIDENLKAADTDPTAPPYDSLLVFDYEGSGSEAASLSSLNSSESDKDQDYDYLNEWGNRFKKLADMYGGGEDD
For B1, the “other: claudin-1 in ZO-1 complexes” value [1] was “increases”, the “other: Ser-phosphorylation of ZO-1 and claudin-1” value [2] was “increases” and the “other: calnexin expression (UPR marker)” value [3] was “no change”. For the same protein, the “other: transepithelial resistance” value [4] was “increases” and the “other: apical localisation of gp135 and ZO-1” value [5] was “increases”.
